Common to all, as to experiment: pull-down
For one experiment, the target named is T1, GST-Gos1 (yeast).
T1 sequence (P38736 whole entry, looked up): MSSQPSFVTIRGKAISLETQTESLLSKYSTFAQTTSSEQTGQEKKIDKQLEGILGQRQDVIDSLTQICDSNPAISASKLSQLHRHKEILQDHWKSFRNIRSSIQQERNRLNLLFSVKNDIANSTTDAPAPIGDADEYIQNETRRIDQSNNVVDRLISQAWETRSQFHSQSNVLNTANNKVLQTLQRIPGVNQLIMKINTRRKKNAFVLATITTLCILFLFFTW

Another experiment concerns the target T2, GST-Sft1 (yeast).
T2 sequence (P43682 whole entry, looked up): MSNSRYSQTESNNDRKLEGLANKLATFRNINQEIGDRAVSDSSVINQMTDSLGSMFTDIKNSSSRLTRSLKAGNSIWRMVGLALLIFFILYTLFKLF

The next experiment addresses GST-Sed5 (yeast).
A further experiment deals with GST.
The target in the next experiment is T3, GST-Ykt6 (yeast).
T3 sequence (P36015 whole entry, looked up): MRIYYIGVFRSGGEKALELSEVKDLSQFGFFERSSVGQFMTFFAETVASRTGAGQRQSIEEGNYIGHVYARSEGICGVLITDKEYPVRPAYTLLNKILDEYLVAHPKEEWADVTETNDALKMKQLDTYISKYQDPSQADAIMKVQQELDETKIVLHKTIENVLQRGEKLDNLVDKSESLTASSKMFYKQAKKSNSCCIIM

The next experiment addresses T4, GST-Bet1 (yeast).
T4 sequence (P22804 whole entry, looked up): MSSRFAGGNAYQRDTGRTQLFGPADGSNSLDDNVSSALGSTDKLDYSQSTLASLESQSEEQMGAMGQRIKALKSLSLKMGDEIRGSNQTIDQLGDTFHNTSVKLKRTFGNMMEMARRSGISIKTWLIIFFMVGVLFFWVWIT

For one molecule, percent of input recovered results are on record in article PMC5620376.

Chain of GST-Sed5 (yeast) (Q01590 whole entry): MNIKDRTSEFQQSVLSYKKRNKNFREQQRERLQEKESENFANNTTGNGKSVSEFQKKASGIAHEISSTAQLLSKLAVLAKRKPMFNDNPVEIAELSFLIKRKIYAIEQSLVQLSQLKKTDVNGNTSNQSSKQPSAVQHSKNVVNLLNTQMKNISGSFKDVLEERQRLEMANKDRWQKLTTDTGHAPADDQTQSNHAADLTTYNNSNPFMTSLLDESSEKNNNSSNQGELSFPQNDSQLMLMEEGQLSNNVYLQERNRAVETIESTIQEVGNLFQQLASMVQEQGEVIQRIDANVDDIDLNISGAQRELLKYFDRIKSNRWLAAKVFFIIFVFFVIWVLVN

B1: Coy1ΔTM-HA (domain or fragment)
chain: MDTSVYSHALDIWAKADLTNLQRELDADVIEIKDKETLSLNSRKSLATETKKFKKLEPEEKLNNVNKIIKQYQREIDNLTQRSKFSEKVLFDVYEKLSEAPDPQPLLQSSLEKLGKIDDSKELKEKISYLEDKLAKYADYETLKSRLLDLEQSSAKTLAKRLTAKTQEINSTWEEKGRNWKEREADLLKQLTNVQEQNKALEAKISKNIDIEGNGNEDGDQENNQKEVSTRIAEYNLVTQELETTQARIYQLEKRNEELSGALAKATSEAEKETELHAKELKLNQLESENALLSASYEQERKSTSHAINELKEQLNSVVAESESYKSELETVRRKLNNYSDYNKIKEELSALKKIEFGVNEDDSDNDIRSEDKNDNTFESSLLSANKKLQATLAEYRSKSTAQEEERNELKKSVDQLKQQIATLKEANEKLETDLEKVENVSPHFNETASMMSGVTRQMNNRTSHKMSPTSSIIGIPEDGELSGNQSTILPIVTKQRDRFRSRNMDLEKQLRQGNSEKGKLKLEISKLKGDNTKLYERIRYLQSYNNNNAPVNQSTERIDVESQYSRVYDESLHPMANFRQNELNHYKNKKLSALEKLFSSFAKVILQNKMTR
In the case of B1, the percent of input recovered in the experiment with GST-Gos1 (yeast) is 15%; with GST-Sft1 (yeast) it was 15%; in the experiment with GST-Sed5 (yeast), 15%; with GST, < 1%; in the experiment with GST-Ykt6 (yeast), < 1%; with GST-Bet1 (yeast), < 1%.
